Article PMC12221289
pKd: −log10 of the molar value.

What was measured:
Experiment in all cases: DRaCALA
[1] = system: Rcu mt-EF-Tu1 (Romanomermis culicivorax); conditions: 3'-aminoacylated with Phe (flexizyme); DRaCALA of EF-Tu:GTP:Phe-tRNA ternary complexes, 2 ul spotted on nitrocellulose, n>=3; binding buffer, pH and temperature not in the material
[2] = system: Rcu mt-EF-Tu1 K380E (Romanomermis culicivorax); conditions: 3'-aminoacylated with Phe (flexizyme); DRaCALA of EF-Tu:GTP:Phe-tRNA ternary complexes, 2 ul spotted on nitrocellulose, n>=3; binding buffer, pH and temperature not in the material
[3] = system: Tbr mt-EF-Tu1 S381D (Trichinella britovi); conditions: 3'-aminoacylated with Phe (flexizyme); DRaCALA of EF-Tu:GTP:Phe-tRNA ternary complexes, 2 ul spotted on nitrocellulose, n>=3; binding buffer, pH and temperature not in the material
[4] = system: Tbr mt-EF-Tu1 S381K (Trichinella britovi); conditions: 3'-aminoacylated with Phe (flexizyme); DRaCALA of EF-Tu:GTP:Phe-tRNA ternary complexes, 2 ul spotted on nitrocellulose, n>=3; binding buffer, pH and temperature not in the material
[5] = system: Rcu mt-EF-Tu1 ΔC3 (Romanomermis culicivorax); conditions: 3'-aminoacylated with Phe (flexizyme); DRaCALA of EF-Tu:GTP:Phe-tRNA ternary complexes, 2 ul spotted on nitrocellulose, n>=3; binding buffer, pH and temperature not in the material
[6] = system: Rcu mt-EF-Tu1 K380D/ΔC50 (Romanomermis culicivorax); conditions: GTP; apparent Kd; 3'-aminoacylated with Phe (flexizyme); DRaCALA of EF-Tu:GTP:Phe-tRNA ternary complexes, 2 ul spotted on nitrocellulose, n>=3; binding buffer, pH and temperature not in the material
[7] = system: Tbr mt-EF-Tu1 (Trichinella britovi); conditions: 3'-aminoacylated with Phe (flexizyme); DRaCALA of EF-Tu:GTP:Phe-tRNA ternary complexes, 2 ul spotted on nitrocellulose, n>=3; binding buffer, pH and temperature not in the material
[8] = system: Cel mt-EF-Tu1 K386D (Caenorhabditis elegans); conditions: 3'-aminoacylated with Phe (flexizyme); DRaCALA of EF-Tu:GTP:Phe-tRNA ternary complexes, 2 ul spotted on nitrocellulose, n>=3; binding buffer, pH and temperature not in the material
[9] = system: Cel mt-EF-Tu1 (Caenorhabditis elegans); conditions: 3'-aminoacylated with Phe (flexizyme); DRaCALA of EF-Tu:GTP:Phe-tRNA ternary complexes, 2 ul spotted on nitrocellulose, n>=3; binding buffer, pH and temperature not in the material
[10] = system: Rcu mt-EF-Tu1 ΔC15 (Romanomermis culicivorax); conditions: GTP; apparent Kd; 3'-aminoacylated with Phe (flexizyme); DRaCALA of EF-Tu:GTP:Phe-tRNA ternary complexes, 2 ul spotted on nitrocellulose, n>=3; binding buffer, pH and temperature not in the material
[11] = system: Rcu mt-EF-Tu1 ΔC50 (Romanomermis culicivorax); conditions: 3'-aminoacylated with Phe (flexizyme); DRaCALA of EF-Tu:GTP:Phe-tRNA ternary complexes, 2 ul spotted on nitrocellulose, n>=3; binding buffer, pH and temperature not in the material
[12] = system: Rcu mt-EF-Tu1 K380R (Romanomermis culicivorax); conditions: 3'-aminoacylated with Phe (flexizyme); DRaCALA of EF-Tu:GTP:Phe-tRNA ternary complexes, 2 ul spotted on nitrocellulose, n>=3; binding buffer, pH and temperature not in the material
[13] = system: Rcu mt-EF-Tu1 region F chimera (Romanomermis culicivorax); conditions: 3'-aminoacylated with Phe (flexizyme); DRaCALA of EF-Tu:GTP:Phe-tRNA ternary complexes, 2 ul spotted on nitrocellulose, n>=3; binding buffer, pH and temperature not in the material
[14] = system: Rcu mt-EF-Tu1 K380D (Romanomermis culicivorax); conditions: 3'-aminoacylated with Phe (flexizyme); DRaCALA of EF-Tu:GTP:Phe-tRNA ternary complexes, 2 ul spotted on nitrocellulose, n>=3; binding buffer, pH and temperature not in the material
[15] = system: Rcu mt-EF-Tu1 ΔC18 (Romanomermis culicivorax); conditions: 3'-aminoacylated with Phe (flexizyme); DRaCALA of EF-Tu:GTP:Phe-tRNA ternary complexes, 2 ul spotted on nitrocellulose, n>=3; binding buffer, pH and temperature not in the material
[16] = biological target: Bta mt-EF-Tu D384A D384A (Bos taurus) (UniProt P49410); conditions: 3'-aminoacylated with Phe (flexizyme); DRaCALA of EF-Tu:GTP:Phe-tRNA ternary complexes, 2 ul spotted on nitrocellulose, n>=3; binding buffer, pH and temperature not in the material
[17] = system: Rcu mt-EF-Tu1 K380A (Romanomermis culicivorax); conditions: 3'-aminoacylated with Phe (flexizyme); DRaCALA of EF-Tu:GTP:Phe-tRNA ternary complexes, 2 ul spotted on nitrocellulose, n>=3; binding buffer, pH and temperature not in the material
[18] = biological target: Bta mt-EF-Tu D384K D384K (Bos taurus) (UniProt P49410); conditions: 3'-aminoacylated with Phe (flexizyme); DRaCALA of EF-Tu:GTP:Phe-tRNA ternary complexes, 2 ul spotted on nitrocellulose, n>=3; binding buffer, pH and temperature not in the material

AGUCAAAUAGCUUAACCUUAAAGCACAAAUCUUUUAAAUUUGAAGAUGUAUCCACUUUGACUACCA [Phe-mt-tRNALys (T-armless)]
pKd [1]: 8.28

GCGGAUUUAGCUCAGUUGGGAGAGCGCCAGACUGAAGAUCUGGAGGUCCUGUGUUCGAUCCACAGAAUUCGCACCA [Phe-tRNAPhe (canonical)]
pKd [1]: 7.65

Phe-mt-tRNAIle (armless)
pKd [2]: 6.83
pKd [3]: 8.15
pKd [4]: 8.52
fold Kd increase vs wild type (fold Kd increase vs wt) [5]: 1.5
pKd [6]: 6.46
pKd [7]: 8.36
pKd [8]: 7.20
pKd [1]: 8.24
pKd [9]: 7.77
pKd [10]: 7.39
fold Kd increase vs wild type (fold Kd increase vs wt) [11]: 14
pKd [12]: 7.78
pKd [13]: 6.65
pKd [14]: 7.15
fold Kd increase vs wild type (fold Kd increase vs wt) [15]: 8.7
pKd [16]: 7.22
pKd [17]: 7.48
pKd [18]: 7.01

Phe-mt-tRNASer(UCU) (D-armless)
pKd [1]: 7.18
